Data reported in PMC9636928 (Proceedings of the National Academy of Sciences of the …, 2022).

Biological target: the molecule itself
Assay: cryo-EM structure

B1: Transmembrane protein 175 (TMEM175), human (natural protein)
chain: MSQPRTPEQALDTPGDCPPGRRDEDAGEGIQCSQRMLSFSDALLSIIATVMILPVTHTEISPEQQFDRSVQRLLATRIAVYLMTFLIVTVAWAAHTRLFQVVGKTDDTLALLNLACMMTITFLPYTFSLMVTFPDVPLGIFLFCVCVIAIGVVQALIVGYAFHFPHLLSPQIQRSAHRALYRRHVLGIVLQGPALCFAAAIFSLFFVPLSYLLMVTVILLPYVSKVTGWCRDRLLGHREPSAHPVEVFSFDLHEPLSKERVEAFSDGVYAIVATLLILDICEDNVPDPKDVKERFSGSLVAALSATGPRFLAYFGSFATVGLLWFAHHSLFLHVRKATRAMGLLNTLSLAFVGGLPLAYQQTSAFARQPRDELERVRVSCTIIFLASIFQLAMWTTALLHQAETLQPSVWFGGREHVLMFAKLALYPCASLLAFASTCLLSRFSVGIFHLMQIAVPCAFLLLRLLVGLALATLRVLRGLARPEHPPPAPTGQDDPQSQLLPAPC
binding result: binds
